Test results: the supplement of paper PMC5998384

Legend:
HeLa Kyoto [1] = experiment: solubility in G1/S (NP-40 vs SDS abundance) (log2 ratio); higher = more soluble; settings: cell cycle stage: G1/S
HeLa Kyoto [2] = experiment: melting temperature (median over replicates), in situ; higher = more thermally stable
HeLa Kyoto [3] = experiment: solubility change mitosis vs G1/S (difference of NP-40 vs SDS log2 ratios) (log2 ratio difference); higher = more soluble in mitosis
HeLa Kyoto [4] = experiment: thermal stability score vs G1/S (z-score of summed log2 fold changes over temperatures); higher = more thermally stable than in G1/S
[5] = cell cycle stage: early G1 (4.5 h after nocodazole release)
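Throughout, for melting temperature (median over replicates), in situ: HeLa Kyoto cells synchronized by double thymidine or nocodazole block, proteins quantified by TMT10plex mass spectrometry, three independent biological replicates.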
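Throughout, for solubility change mitosis vs G1/S (difference of NP-40 vs SDS log2 ratios): synchronized HeLa Kyoto cells (double thymidine block for G1/S, nocodazole release for mitosis), protein amounts in NP-40 versus SDS lysates quantified by mass spectrometry, three biological replicates.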
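Throughout, for solubility in G1/S (NP-40 vs SDS abundance): HeLa Kyoto cells arrested at G1/S by double thymidine block, proteins quantified by TMT10plex mass spectrometry in mild NP-40 versus SDS extracts, three biological replicates.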
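Throughout, for thermal stability score vs G1/S (z-score of summed log2 fold changes over temperatures): synchronized HeLa Kyoto cells, proteins quantified by TMT10plex mass spectrometry, three biological replicates, mitosis taken 0.5 h after nocodazole release, G1/S directly after double thymidine block.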

Chain of PPCS (chain, as listed by the source): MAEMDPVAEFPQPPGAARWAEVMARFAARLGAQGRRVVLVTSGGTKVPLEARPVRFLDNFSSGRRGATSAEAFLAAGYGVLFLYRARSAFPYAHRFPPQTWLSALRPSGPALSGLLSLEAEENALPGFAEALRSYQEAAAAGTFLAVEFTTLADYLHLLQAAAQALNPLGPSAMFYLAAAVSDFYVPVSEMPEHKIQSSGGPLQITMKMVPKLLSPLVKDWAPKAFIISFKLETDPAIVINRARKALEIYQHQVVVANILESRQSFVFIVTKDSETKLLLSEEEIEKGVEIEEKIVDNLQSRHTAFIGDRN

Row | Substance | solubility in G1/S (log2) (HeLa Kyoto [1]) | melting temperature (HeLa Kyoto [2]; cell cycle stage: G1/S) | melting temperature (HeLa Kyoto [2]; cell cycle stage: mitosis) | solubility change mitosis (log2) (HeLa Kyoto [3]) | thermal stability score (HeLa Kyoto [4]; [5]) | thermal stability score (HeLa Kyoto [4]; cell cycle stage: mitosis)
1 | MLCWGNASFGQLGLGGIDEEIVLEPRKSDFFINKRVRDVGCGLRHTVFVLDDGTVYTCGCNDLGQLGHEKSRKKPEQVVALDAQNIVAVSCGEAHTLALNDKGQVYAWGLDSDGQLGLVGSEECIRVPRNIKSLSDIQIVQVACGYYHSLALSKASEVFCWGQNKYGQLGLGTDCKKQTSPQLLKSLLGIPFMQVAAGGAHSFVLTLSGAIFGWGRNKFGQLGLNDENDRYVPNLLKSLRSQKIVYICCGEDHTAALTKEGGVFTFGAGGYGQLGHNSTSHEINPRKVFELMGSIVTEIACGRQHTSAFVPSSGRIYSFGLGGNGQLGTGSTSNRKSPFTVKGNWYPYNGQCLPDIDSEEYFCVKRIFSGGDQSFSHYSSPQNCGPPDDFRCPNPTKQIWTVNEALIQKWLSYPSGRFPVEIANEIDGTFSSSGCLNGSFLAVSNDDHYRTGTRFSGVDMNAARLLFHKLIQPDHPQISQQVAASLEKNLIPKLTSSLPDVEALRFYLTLPECPLMSDSNNFTTIAIPFGTALVNLEKAPLKVLENWWSVLEPPLFLKIVELFKEVVVHLLKLYKIGIPPSERRIFNSFLHTALKVLEILHRVNEKMGQIIQYDKFYIHEVQELIDIRNDYINWVQQQAYGMDVNHGLTELADIPVTICTYPFVFDAQAKTTLLQTDAVLQMQMAIDQAHRQNVSSLFLPVIESVNPCLILVVRRENIVGDAMEVLRKTKNIDYKKPLKVIFVGEDAVDAGGVRKEFFLLIMRELLDPKYGMFRYYEDSRLIWFSDKTFEDSDLFHLIGVICGLAIYNCTIVDLHFPLALYKKLLKKKPSLDDLKELMPDVGRSMQQLLDYPEDDIEETFCLNFTITVENFGATEVKELVLNGADTAVNKQNRQEFVDAYVDYIFNKSVASLFDAFHAGFHKVCGGKVLLLFQPNELQAMVIGNTNYDWKELEKNTEYKGEYWAEHPTIKIFWEVFHELPLEKKKQFLLFLTGSDRIPILGMKSLKLVIQSTGGGEEYLPVSHTCFNLLDLPKYTEKETLRSKLIQAIDHNEGFSLI [HERC4] | -0.169 | 51.4 °C | 51 °C | -0.179 | -0.179 | -0.361
2 | MDELAGGGGGGPGMAAPPRQQQGPGGNLGLSPGGNGAAGGGGPPASEGAGPAAGPELSRPQQYTIPGILHYIQHEWARFEMERAHWEVERAELQARIAFLQGERKGQENLKKDLVRRIKMLEYALKQERAKYHKLKYGTELNQGDLKMPTFESEETKDTEAPTAPQNSQLTWKQGRQLLRQYLQEVGYTDTILDVRSQRVRSLLGLSNSEPNGSVETKNLEQILNGGESPKQKGQEIKRSSGDVLETFNFLENADDSDEDEENDMIEGIPEGKDKHRMNKHKIGNEGLAADLTDDPDTEEALKEFDFLVTAEDGEGAGEARSSGDGTEWDKDDLSPTAEVWDVDQGLISKLKEQYKKERKGKKGVKRANRTKLYDMIADLGDDELPHIPSGIINQSRSASTRMTDHEGARAEEAEPITFPSGGGKSFIMGSDDVLLSVLGLGDLADLTVTNDADYSYDLPANKDAFRKTWNPKYTLRSHFDGVRALAFHPVEPVLVTASEDHTLKLWNLQKTVPAKKSASLDVEPIYTFRAHIGPVLSLAISSNGEQCFSGGIDATIQWWNMPSPSVDPYDTYEPNVLAGTLVGHTDAVWGLAYSGIKNQLLSCSADGTVRLWNPQEKLPCICTYNGDKKHGIPTSVDFIGCDPAHMVTSFNTGSAVIYDLETSQSLVILSSQVDSGLQSNNHINRVVSHPTLPVTITAHEDRHIKFFDNKTGKMIHSMVAHLDAVTSLAVDPNGIYLMSGSHDCSIRLWNLDSKTCVQEITAHRKKLDESIYDVAFHSSKAYIASAGADALAKVFV [STRN3] | -0.0799 | 52.1 °C | 52.4 °C | -0.0757 | -0.00707 | -0.722
3 | MTKKRKRQHDFQKVKLKVGKKKPKLQNATPTNFKTKTIHLPEQLKEDGTLPTNNRKLNIKDLLSQMHHYNAGVKQSALLGLKDLLSQYPFIIDAHLSNILSEVTAVFTDKDANVRLAAVQLLQFLAPKIRAEQISPFFPLVSAHLSSAMTHITEGIQEDSLKVLDILLEQYPALITGRSSILLKNFVELISHQQLSKGLINRDRSQSWILSVNPNRRLTSQQWRLKVLVRLSKFLQALADGSSRLRESEGLQEQKENPHATSNSIFINWKEHANDQQHIQVYENGGSQPNVSSQFRLRYLVGGLSGVDEGLSSTENLKGFIEIIIPLLIECWVEAVPPQLATPVGNGIEREPLQVMQQVLNIISLLWKLSKQQDETHKLESWLRKNYLIDFKHHFMSRFPYVLKEITKHKRKEPNKSIKHCTVLSNNIDHLLLNLTLSDIMVSLANASTLQKDCSWIEMIRKFVTETLEDGSRLNSKQLNRLLGVSWRLMQIQPNREDTETLIKAVYTLYQQRGLILPVRTLLLKFFSKIYQTEELRSCRFRYRSKVLSRWLAGLPLQLAHLGSRNPELSTQLIDIIHTAAARANKELLKSLQATALRIYDPQEGAVVVLPADSQQRLVQLVYFLPSLPADLLSRLSRCCIMGRLSSSLAAMLIGILHMRSSFSGWKYSAKDWLMSDVDYFSFLFSTLTGFSKEELTWLQSLRGVPHVIQTQLSPVLLYLTDLDQFLHHWDVTEAVFHSLLVIPARSQNFDILQSAISKHLVGLTVIPDSTAGCVFGVICKLLDHTCVVSETLLPFLASCCYSLLYFLLTIEKGEAEHLRKRDKLWGVCVSILALLPRVLRLMLQSLRVNRVGPEELPVVGQLLRLLLQHAPLRTHMLTNAILVQQIIKNITTLKSGSVQEQWLTDLHYCFNVYITGHPQGPSALATVY [TEX10] | -1.92 | 54.3 °C | 52 °C | 0.921 | -1.74 | -4.37
4 | MATSPQKSPSVPKSPTPKSPPSRKKDDSFLGKLGGTLARRKKAKEVSELQEEGMNAINLPLSPIPFELDPEDTMLEENEVRTMVDPNSRSDPKLQELMKVLIDWINDVLVGERIIVKDLAEDLYDGQVLQKLFEKLESEKLNVAEVTQSEIAQKQKLQTVLEKINETLKLPPRSIKWNVDSVHAKSLVAILHLLVALSQYFRAPIRLPDHVSIQVVVVQKREGILQSRQIQEEITGNTEALSGRHERDAFDTLFDHAPDKLNVVKKTLITFVNKHLNKLNLEVTELETQFADGVYLVLLMGLLEGYFVPLHSFFLTPDSFEQKVLNVSFAFELMQDGGLEKPKPRPEDIVNCDLKSTLRVLYNLFTKYRNVE [PARVA] | 0.479 | 51 °C | 50.8 °C | -0.0689 | 1.2 | 1.23
5 | PPCS | 0.249 | 52.1 °C | 52.9 °C | -0.173 | -0.584 | -0.132
6 | MAAVVVAAAGGAGPAVLQVAGLYRGLCAVRSRALGLGLVSPAQLRVFPVRPGSGRPEGGADSSGVGAEAELQANPFYDRYRDKIQLLRRSDPAAFESRLEKRSEFRKQPVGHSRQGDFIKCVEQKTDALGKQSVNRGFTKDKTLSSIFNIEMVKEKTAEEIKQIWQQYFAAKDTVYAVIPAEKFDLIWNRAQSCPTFLCALPRREGYEFFVGQWTGTELHFTALINIQTRGEAAASQLILYHYPELKEEKGIVLMTAEMDSTFLNVAEAQCIANQVQLFYATDRKETYGLVETFNLRPNEFKYMSVIAELEQSGLGAELKCAQNQNKT [ATPAF1] | 0.199 | 51.4 °C | 51.5 °C | -0.00439 | 1.88 | 1.83
7 | MSVVGIDLGFLNCYIAVARSGGIETIANEYSDRCTPACISLGSRTRAIGNAAKSQIVTNVRNTIHGFKKLHGRSFDDPIVQTERIRLPYELQKMPNGSAGVKVRYLEEERPFAIEQVTGMLLAKLKETSENALKKPVADCVISIPSFFTDAERRSVMAAAQVAGLNCLRLMNETTAVALAYGIYKQDLPPLDEKPRNVVFIDMGHSAYQVLVCAFNKGKLKVLATTFDPYLGGRNFDEALVDYFCDEFKTKYKINVKENSRALLRLYQECEKLKKLMSANASDLPLNIECFMNDLDVSSKMNRAQFEQLCASLLARVEPPLKAVMEQANLQREDISSIEIVGGATRIPAVKEQITKFFLKDISTTLNADEAVARGCALQCAILSPAFKVREFSITDLVPYSITLRWKTSFEDGSGECEVFCKNHPAPFSKVITFHKKEPFELEAFYTNLHEVPYPDARIGSFTIQNVFPQSDGDSSKVKVKVRVNIHGIFSVASASVIEKQNLEGDHSDAPMETETSFKNENKDNMDKMQVDQEEGHQKCHAEHTPEEEIDHTGAKTKSAVSDKQDRLNQTLKKGKVKSIDLPIQSSLCRQLGQDLLNSYIENEGKMIMQDKLEKERNDAKNAVEEYVYDFRDRLGTVYEKFITPEDLSKLSAVLEDTENWLYEDGEDQPKQVYVDKLQELKKYGQPIQMKYMEHEERPKALNDLGKKIQLVMKVIEAYRNKDERYDHLDPTEMEKVEKCISDAMSWLNSKMNAQNKLSLTQDPVVKVSEIVAKSKELDNFCNPIIYKPKPKAEVPEDKPKANSEHNGPMDGQSGTETKSDSTKDSSQHTKSSGEMEVD [HSPA4L] | 0.145 | 49.8 °C | 49.9 °C | -0.0487 | 1.4 | 1.87
8 | CELSR2 | 0.141 | 56.8 °C | 54.6 °C | -0.142 | -4.5 | -5.14
9 | MGKKQKNKSEDSTKDDIDLDALAAEIEGAGAAKEQEPQKSKGKKKKEKKKQDFDEDDILKELEELSLEAQGIKADRETVAVKPTENNEEEFTSKDKKKKGQKGKKQSFDDNDSEELEDKDSKSKKTAKPKVEMYSGSDDDDDFNKLPKKAKGKAQKSNKKWDGSEEDEDNSKKIKERSRINSSGESGDESDEFLQSRKGQKKNQKNKPGPNIESGNEDDDASFKIKTVAQKKAEKKERERKKRDEEKAKLRKLKEKEELETGKKDQSKQKESQRKFEEETVKSKVTVDTGVIPASEEKAETPTAAEDDNEGDKKKKDKKKKKGEKEEKEKEKKKGPSKATVKAMQEALAKLKEEEERQKREEEERIKRLEELEAKRKEEERLEQEKRERKKQKEKERKERLKKEGKLLTKSQREARARAEATLKLLQAQGVEVPSKDSLPKKRPIYEDKKRKKIPQQLESKEVSESMELCAAVEVMEQGVPEKEETPPPVEPEEEEDTEDAGLDDWEAMASDEETEKVEGNKVHIEVKENPEEEEEEEEEEEEDEESEEEEEEEGESEGSEGDEEDEKVSDEKDSGKTLDKKPSKEMSSDSEYDSDDDRTKEERAYDKAKRRIEKRRLEHSKNVNTEKLRAPIICVLGHVDTGKTKILDKLRHTHVQDGEAGGITQQIGATNVPLEAINEQTKMIKNFDRENVRIPGMLIIDTPGHESFSNLRNRGSSLCDIAILVVDIMHGLEPQTIESINLLKSKKCPFIVALNKIDRLYDWKKSPDSDVAATLKKQKKNTKDEFEERAKAIIVEFAQQGLNAALFYENKDPRTFVSLVPTSAHTGDGMGSLIYLLVELTQTMLSKRLAHCEELRAQVMEVKALPGMGTTIDVILINGRLKEGDTIIVPGVEGPIVTQIRGLLLPPPMKELRVKNQYEKHKEVEAAQGVKILGKDLEKTLAGLPLLVAYKEDEIPVLKDELIHELKQTLNAIKLEEKGVYVQASTLGSLEALLEFLKTSEVPYAGINIGPVHKKDVMKASVMLEHDPQYAVILAFDVRIERDAQEMADSLGVRIFSAEIIYHLFDAFTKYRQDYKKQKQEEFKHIAVFPCKIKILPQYIFNSRDPIVMGVTVEAGQVKQGTPMCVPSKNFVDIGIVTSIEINHKQVDVAKKGQEVCVKIEPIPGESPKMFGRHFEATDILVSKISRQSIDALKDWFRDEMQKSDWQLIVELKKVFEII [EIF5B] | -0.19 | 51.5 °C | 51.6 °C | 0.0872 | 1.35 | 2.42
10 | CASC5 | -0.247 | 47.7 °C | 48.3 °C | -0.0741 | 1.3 | 1.4
11 | MEGLVVAAGGDVSLHNFSARLWEQLVHFHVMRLTDSLFLWVGATPHLRNLAVAMCSRYDSIPVSTSLLGDTSDTTSTGLAQRLARKTNKQVFVSYNLQNTDSNFALLVENRIKEEMEAFPEKF [PSMG4] | 0.14 | 57.5 °C | 54.1 °C | -0.0112 | -0.165 | -2.02
